Laboratory results as given in paper PMC9753469 (2022).

B1: MBP-KRAB (ZNF93 KRAB E35R) (domain or fragment)
chain: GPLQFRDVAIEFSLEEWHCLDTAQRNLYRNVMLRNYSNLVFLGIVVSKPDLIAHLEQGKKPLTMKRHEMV
B2: MBP-KRAB (ZNF93 KRAB, wild type) (domain or fragment)
chain: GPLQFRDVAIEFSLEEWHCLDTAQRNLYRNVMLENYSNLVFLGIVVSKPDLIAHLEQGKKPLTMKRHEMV

Key:
[1] = biological target: T1, KAP1 RBCC R311E, SPR analyte (human (by the printed UniProt entry), UniProt Q13263 1-835, R311E); assay: SPR; major phase
[2] = biological target: T1, KAP1 RBCC R311E, SPR analyte; assay: SPR; minor phase
[3] = biological target: B2; assay: SPR; major phase
[4] = biological target: B1; assay: SPR; major phase
[5] = biological target: B2; assay: SPR; minor phase
[6] = biological target: B2; assay: SPR; minor phase; remark: listed apart in the source
[7] = biological target: B1; assay: SPR; minor phase
[8] = biological target: T1, KAP1 RBCC R311E, SPR analyte; assay: SPR
[9] = biological target: T1, KAP1 RBCC R311E, SPR analyte; assay: SPR; major phase; remark: listed apart in the source

Row | koff [1] | Kd [2] | koff [3] | koff [4] | koff [5] | Kd [6] | Kd [7] | Kd [8] | Kd [9] | Binder
1 | 0.0037 s⁻¹ | 35.6 µM | – | – | – | – | – | – | – | B1
2 | – | – | 0.000232 s⁻¹ | 0.008 s⁻¹ | 0.0061 s⁻¹ | 19 µM | 47 µM | – | – | KAP1 RBCC (wild type), SPR analyte (domain or fragment) SPAGGGAEALELLEHCGVCRERLRPEREPRLLPCLHSACSACLGPAAPAAANSSGDGGAAGDGTVVDCPVCKQQCFSKDIVENYFMRDSGSKAATDAQDANQCCTSCEDNAPATSYCVECSEPLCETCVEAHQRVKYTKDHTVRSTGPAKSRDGERTVYCNVHKHEPLVLFCESCDTLTCRDCQLNAHKDHQYQFLEDAVRNQRKLLASLVKRLGDKHATLQKSTKEVRSSIRQVSDVQKRVQVDVKMAILQIMKELNKRGRVLVNDAQKVTEGQQERLERQHWTMTKIQKHQEHILRFASWALESDNNTALLLSKKLIYFQLHRALKMIVDPVEPHGEMKFQWDLNAWTKSAEAFGKIVAERP
3 | 0.00083 s⁻¹ | 2 µM | – | – | – | – | – | 0.029 µM | 0.029 µM | B2
